The numbers were not newly measured in PMC8690575, which cites them from elsewhere.

In the data set the target is Rhodopsin (Mus musculus) (UniProt P15409).

Take Arrestin-1 (from UniProt P20443): the Kd was 150 µM.

As a reminder, the Kd is the constant that tells how readily two partners part at equilibrium.
